According to patent US20190241669A1 (published 2019):
Changes are numbered by the printed parent chain.

B1: C01_Rd4_6nM_C04 (antibody, V domains shown)
VH: EVQLLESGGGLVQPGGSLRLSCAASGFTFSSYPMSWVRQAPGKGLEWVSAIGGSGGSLPYADSVKGRFTISRDNSKNTLYLQMNSLRAEDTAVYYCARYWPMDSWGQGTLVTVSS
VL: EIVLTQSPGTLSLSPGERATLSCCSSQSVSSTYLAWYQQKPGQAPRLLIYDASSRAPGIPDRFSGSGSGTDFTLTISRLEPEDFAVYYCQQYSAFPLTFGQGTKVEIK
notes: IgG
B2: COMBO_Rd4_0.6nM_C30 (antibody, V domains shown)
VH: B1 VH with L58T, P59Y
VL: B1 VL with C24R, S25A, S31Y, T32M, S54I, P57T, S93K, A94S, F95W
notes: IgG
B3: COMBO_Rd4_0.6nM_C02 (antibody, V domains shown)
VH: B1 VH
VL: B1 VL with C24R, S25A, Q27I, S28A, I49M, S54I, P57T, S93M, A94V, F95W
notes: IgG
B4: C01_Rd4_6nM_C10 (antibody, V domains shown)
VH: B1 VH
VL: B1 VL with C24R, S25A, T32V, A94T, F95W
notes: IgG
B5: COMBO_Rd4_0.6nM_C09 (antibody, V domains shown)
VH: B1 VH with S104I
VL: B1 VL with C24R, S25A, I49M, S54I, P57T, S93Q, A94E, F95W
notes: IgG
B6: C01_Rd4_6nM_C20 (antibody, V domains shown)
VH: B1 VH
VL: B1 VL with C24R, S25A, S31P, T32L
notes: IgG
B7: COMBO_Rd4_6nM_C07 (antibody, V domains shown)
VH: B1 VH with D103A, S104D
VL: EIVLTQSPGTLSLSPGERATLSCRASQPISSSYLAWYQQKPGQAPRLLMYDASIRATGIPDRFSGSGSGTDFTLTISRLEPEDFAVYYCQQYQGWPLTFGQGTKVEIK
notes: IgG
B8: COMBO_Rd4_0.6nM_C04 (antibody, V domains shown)
VH: B1 VH with I51H, G52I, L58T, P59Y
VL: B7 VL with P28S, I29V, S32T, G94S
notes: IgG
B9: COMBO_Rd4_0.6nM_C11 (antibody, V domains shown)
VH: B1 VH with I51A, G52L, L58T, P59Y, D103S, S104L
VL: B7 VL with P28S, I29V, S31V, S32R, Q93G, G94S, L97I
notes: IgG
B10: COMBO_Rd4_0.6nM_C05 (antibody, V domains shown)
VH: B1 VH with P33A, S35N, L58T, P59Y, D103S, S104L
VL: B7 VL with P28S, I29V, S32T, Q93M, G94S
notes: IgG
B11: COMBO_Rd4_0.6nM_C17 (antibody, V domains shown)
VH: B1 VH with S104I
VL: B7 VL with P28G, S32T, Q93A, G94Y
notes: IgG
B12: C01_Rd4_6nM_C24 (antibody, V domains shown)
VH: B1 VH
VL: B1 VL with C24R, S25A, S31P, T32E, A94V, F95W
notes: IgG
B13: COMBO_Rd4_6nM_C10 (antibody, V domains shown)
VH: B1 VH with L58I, P59H
VL: B7 VL with P28S, I29V, L34W, A35G, G94C
notes: IgG
B14: C01_Rd4_6nM_C09 (antibody, V domains shown)
VH: B1 VH with I51T, G52V, L58I, P59G
VL: B1 VL with C24A, S25C, F95W
notes: IgG
B15: COMBO_Rd4_6nM_C09 (antibody, V domains shown)
VH: B1 VH with G52F, G53A, L58T, P59Y
VL: B7 VL with P28S, I29V, S31A, S32Q, G94A
notes: IgG
B16: C01_Rd4_6nM_C12 (antibody, V domains shown)
VH: B1 VH with S57W, L58S, P59Y
VL: B1 VL with C24W, S25L, A94E, F95W
notes: IgG; also called PC1C12
B17: COMBO_Rd4_0.6nM_C14 (antibody, V domains shown)
VH: B1 VH with S104I
VL: B7 VL with P28S, I29V, S31A, S32L, Q93Y
notes: IgG
B18: COMBO_Rd4_6nM_C08 (antibody, V domains shown)
VH: B1 VH with G56T, S57W, L58T, P59Y
VL: B7 VL with P28S, I29V, G94K
notes: IgG
B19: COMBO_Rd4_0.6nM_C19 (antibody, V domains shown)
VH: B1 VH
VL: B7 VL with P28S, I29V, S31A, S32V, Q93R, G94A
notes: IgG
B20: COMBO_Rd4_0.6nM_C20 (antibody, V domains shown)
VH: B1 VH
VL: B7 VL with P28S, I29V, S31Y, S32L, Q93M, G94E
notes: IgG
B21: C01_Rd4_6nM_C26 (antibody, V domains shown)
VH: B1 VH
VL: B1 VL with C24R, S25A, S31A, T32L, F95W
notes: IgG
B22: COMBO_Rd4_6nM_C11 (antibody, V domains shown)
VH: B1 VH with P59G
VL: B7 VL with P28S, I29V, S31P, S32L, Q93K, G94A
notes: IgG
B23: COMBO_Rd4_0.6nM_C23 (antibody, V domains shown)
VH: B1 VH with I51L, G52F, L58T, P59Y
VL: B7 VL with A25P, S26R, P28S, I29V, G94D
notes: IgG
B24: COMBO_Rd4_6nM_C02 (antibody, V domains shown)
VH: B1 VH with P33A, S35N, G52S, G53D, S57F, L58V, P59Y
VL: B7 VL with P28S, I29V, Q93E, G94F
notes: IgG

Key:
Human BCMA (human) = Human BCMA (human) (UniProt Q02223); test: SPR, IgG on chip, huBCMA analyte
cynomolgus monkey BCMA = target: T1, cynomolgus monkey BCMA (cynomolgus monkey, UniProt A0A2K5UD97 1-53); test: SPR, IgG on chip, cyBCMA analyte
T1 construct: Soluble analyte in SPR; construct not described; also called cyBCMA; Cyno BCMA
T1 sequence (A0A2K5UD97 entry or part of it): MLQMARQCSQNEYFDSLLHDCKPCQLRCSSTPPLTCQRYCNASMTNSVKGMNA

Binder	Kd (Human BCMA (human))	koff (Human BCMA (human))	kon (Human BCMA (human))	Kd (cynomolgus monkey BCMA)	koff (cynomolgus monkey BCMA)	kon (cynomolgus monkey BCMA)
B1	2130 pM	0.0497 s⁻¹	2.33e+07 M⁻¹ s⁻¹	5160 pM	0.0327 s⁻¹	6.34e+06 M⁻¹ s⁻¹
B2	65 pM	0.000282 s⁻¹	4.35e+06 M⁻¹ s⁻¹	481 pM	0.000808 s⁻¹	1.68e+06 M⁻¹ s⁻¹
B3	22 pM	0.000185 s⁻¹	8.57e+06 M⁻¹ s⁻¹	164 pM	0.000494 s⁻¹	3.01e+06 M⁻¹ s⁻¹
B4	162 pM	0.00212 s⁻¹	1.31e+07 M⁻¹ s⁻¹	493 pM	0.00219 s⁻¹	4.44e+06 M⁻¹ s⁻¹
B5	31 pM	0.000319 s⁻¹	1.04e+07 M⁻¹ s⁻¹	92 pM	0.000346 s⁻¹	3.77e+06 M⁻¹ s⁻¹
B6	459 pM	0.00276 s⁻¹	6.02e+06 M⁻¹ s⁻¹	1740 pM	0.00625 s⁻¹	3.6e+06 M⁻¹ s⁻¹
B7	35 pM	0.000371 s⁻¹	1.05e+07 M⁻¹ s⁻¹	237 pM	0.000934 s⁻¹	3.94e+06 M⁻¹ s⁻¹
B8	15 pM	0.000158 s⁻¹	1.07e+07 M⁻¹ s⁻¹	39 pM	0.000137 s⁻¹	3.52e+06 M⁻¹ s⁻¹
B9	207 pM	0.00106 s⁻¹	5.11e+06 M⁻¹ s⁻¹	1920 pM	0.00423 s⁻¹	2.2e+06 M⁻¹ s⁻¹
B10	115 pM	0.000497 s⁻¹	4.32e+06 M⁻¹ s⁻¹	886 pM	0.00172 s⁻¹	1.94e+06 M⁻¹ s⁻¹
B11	92 pM	0.000801 s⁻¹	8.68e+06 M⁻¹ s⁻¹	330 pM	0.00101 s⁻¹	3.06e+06 M⁻¹ s⁻¹
B12	467 pM	0.00348 s⁻¹	7.47e+06 M⁻¹ s⁻¹	281 pM	0.000891 s⁻¹	3.17e+06 M⁻¹ s⁻¹
B13	18 pM	9.72e-05 s⁻¹	5.47e+06 M⁻¹ s⁻¹	105 pM	0.00016 s⁻¹	1.52e+06 M⁻¹ s⁻¹
B14	811 pM	0.0128 s⁻¹	1.58e+07 M⁻¹ s⁻¹	2330 pM	0.00868 s⁻¹	3.73e+06 M⁻¹ s⁻¹
B15	16 pM	0.000143 s⁻¹	8.85e+06 M⁻¹ s⁻¹	134 pM	0.000318 s⁻¹	2.37e+06 M⁻¹ s⁻¹
B16	535 pM	0.00649 s⁻¹	1.21e+07 M⁻¹ s⁻¹	820 pM	0.0037 s⁻¹	4.51e+06 M⁻¹ s⁻¹
B17	38 pM	0.000328 s⁻¹	8.66e+06 M⁻¹ s⁻¹	185 pM	0.000645 s⁻¹	3.48e+06 M⁻¹ s⁻¹
B18	19 pM	0.000169 s⁻¹	8.99e+06 M⁻¹ s⁻¹	140 pM	0.000428 s⁻¹	3.06e+06 M⁻¹ s⁻¹
B19	20 pM	0.000155 s⁻¹	7.86e+06 M⁻¹ s⁻¹	336 pM	0.000979 s⁻¹	2.92e+06 M⁻¹ s⁻¹
B20	19 pM	0.000146 s⁻¹	7.65e+06 M⁻¹ s⁻¹	92 pM	0.000284 s⁻¹	3.09e+06 M⁻¹ s⁻¹
B21	90 pM	0.00136 s⁻¹	1.5e+07 M⁻¹ s⁻¹	419 pM	0.00199 s⁻¹	4.75e+06 M⁻¹ s⁻¹
B22	18 pM	0.000124 s⁻¹	6.74e+06 M⁻¹ s⁻¹	156 pM	0.000412 s⁻¹	2.64e+06 M⁻¹ s⁻¹
B23	28 pM	0.00021 s⁻¹	7.39e+06 M⁻¹ s⁻¹	189 pM	0.000531 s⁻¹	2.81e+06 M⁻¹ s⁻¹
B24	422 pM	0.000443 s⁻¹	1.05e+06 M⁻¹ s⁻¹	1710 pM	0.00136 s⁻¹	795000 M⁻¹ s⁻¹
